Entries after “also recorded” stand apart in the source; their conditions may differ. The star is where a group is joined. Biotin = O=C1N[C@H]2[C@H](CS[C@H]2CCCCC(=O)*)N1
Assays:
[1] = Macro-scale scaffold formation upon exposure to PBS / neutral pH buffer; format: physicochemical; conditions: upon exposure to PBS (1×) / neutral pH buffer
Excerpt: The tested peptides solutions appearance ranged from peptides giving clear liquid is solutions (e.g. 4, B15, B19, B25, B28, 30) to samples which become opaque in 1 to 7 days after dissolution (e.g. B3, B17, B22, B24, B27, 31) as shown in FIG. 2a (I). Most of the liquid solutions increased in viscosity over the first week after dissolution, however after ten days in water no appreciable changes happened at the macroscale.
(§1) Nonetheless, keeping constant the observation time, the storage moduli of peptide solutions previously dissolved (the day before) at 3% w/v were measured. Measurements were obtained of these peptide solutions, further diluted to 1% w/v at the same day of the experiment (unless otherwise specified), and, after addition of PBS, of the formed scaffolds.

[2] = system: human Neural Stem Cells (hNSCs); experiment: Phase contrast imaging of hNSC morphology on scaffolds; format: cell-based; conditions: 7 days in vitro
Procedure: In vitro tests were performed following a previously adopted methodology (5). Briefly, cells (at a concentration of 6×10^4 cells/cm^2) were seeded on the top-surface of each assembled scaffold previously assembled into 96 multiwells. Initially, cells were cultured with basal medium supplemented with βFGF (10 ng/ml), added to enhance neuronal progeny differentiation. At 3 days in vitro (DIV), βFGF medium was replaced with Leukemia Inhibitory Factor (LIF, Chemicon) (20 ng/ml) and Brain Derived Neurotrophic Factor (BDNF, Peprotech) (20 ng/ml). Fresh medium was added every three days. Positive and negative controls consisted of CULTREX-BME® substrate (R&D systems) (1:100 dilution in basal medium) and untreated bottom well surfaces respectively.
To assess the potential of the proposed SAPs for cell cultures and, more generally, for regenerative medicine, a two-dimensional cell culture protocol already developed for RADA16-I-like peptides was adapted (5). Briefly, human Neural Stem Cells (hNSCs), mechanically dissociated 1 day before plating, were seeded and cultured for one week in vitro over self-assembled scaffolds of B3, 4, B15, B17, B19, B22, B24, B25, B27, B28, 30, 31 and over non-coated tissue culture plastic wells (negative control).

[3] = Self-healing tests of assembled scaffolds after mechanical rupture; format: physicochemical; conditions: recovery of scaffold stiffness after mechanical rupture
Procedure: (§2) Rheological properties were determined for the peptides of the invention, using a controlled stress TA Instruments AR-2000ex rheometer (TAInstruments). A cone-and-plate geometry (acrylic cone diameter, 20 mm; angle, 1°; truncation gap 34 μm) was used. All measurements were obtained at a constant monitored temperature of 25° C. Preliminary strain sweeps were performed for each sample to define the linear viscoelastic region, thus ensuring that moduli were independent of strain. Time sweeps, after addition of PBS (1×) were recorded at constant angular frequency (ω=1 Hz). Frequency sweeps, both for peptide water solutions and for self-assembled scaffolds, were performed with the instrument in oscillatory mode at controlled strain of 1%. Final: onset point of rupture was calculated by linear interpolation and subsequent determination of the intersection of the G′ modes in the linear region and at material rupture respectively. G′ values were averaged in the 1-100 Hz region and between n=3 independent replicates. During self-healing tests the self-assembled scaffold was torn by applying a strain sweep (0.01%-1000% strain range) at 1 Hz oscillatory frequency. G′ values were is recorded in frequency sweep mode (at 1% strain) or, in time sweep mode (at 1 Hz and at 1% strain), before and after the strain sweep step, subsequent observations were performed every half hour or, in case of time sweep test, every 30 seconds. In all of the SAPs the difference between the storage moduli measured before and after PBS addition spanned from two to four orders of magnitude, proving the dramatic biomechanical changes taking place during scaffold gelation. Peptide B3 (1%) yielded a solid stiff scaffold (G′=2917 Pa), supporting the idea that ionic charges may screen the electrostatic repulsions given by positively charged lysine residues and speed up the spontaneous ongoing self-assembling process, on its turn giving an already viscous (G′=67 Pa) and opaque solution at day 1. Among the peptides giving soft scaffold (100 Pa-1000 Pa range) peptides 4, B19, B25, B28 and 30 were included. On the opposite side, SAPs yielding solid stiff scaffolds are B15, B22, B24, B27 and 31 (5000 Pa-9000 Pa range).
Solid scaffolds were obtained via addition of PBS (1×) in a cone-and-plate rheometer; we measured the storage modulus, the samples were subjected to a strain sweep (0.01% to 1000%) until and far beyond rupture occurred (i.e. is monitoring the sudden drop of G′ value). Samples were then left in place (keeping them hydrated with PBS) and their G′ were measured every 30 minutes via frequency sweep tests in the range of 0.1 Hz to 60 Hz. As a negative control KLD-12, a well-known SAP, was tested (4, 6). […] In FIG. 6b peptide B25 (3% w/v concentration) was assessed for self-healing in a time sweep mode, every 30 seconds, at 1 Hz and at 1% strain. Values of G′ recovered after 100 minutes (1000 Pa) and steadily plateaued over time. For peptides B3, B22, B25 and B27 full recovery was obtained at different time intervals after rupture, ranging from 60′ to 240′. Similar results were confirmed by multiple independent experiments, but at different time ranges, for all of the self-assembling peptides except for B19 and B28.
Samples were checked for rupture by tilting. After a maximum of four hours all of the samples returned to their solidified gel appearance. This healing could be repeated at will.

[4] = Rheological tests (storage modulus G′, cone-and-plate rheometer); format: physicochemical
Procedure: as §2
The mechanical properties of the synthesized peptides were tested with a cone-and-plate rheometer. Firstly, the G′ dependence of peptide water solutions on concentration increments, and consequently aggregation kinetics, was assessed as shown in FIG. 2b.
as §1

Row | Substance | solid scaffold / hydrogel formation [1] | other results
1 | Ac-F-GGG-AFASTKT-GIKVAV-CONH2 (Ac-FGGGAFASTKTGIKVAV-NH2) [compound 59] | yielded solid scaffolds | 
2 | Ac-F-GGG-AFSSTKT-CONH2 (Ac-FGGGAFSSTKT-NH2) [compound 61] | yielded solid scaffolds | 
3 | Ac-FGGG-PFSSTKT-CONH2 (Ac-FGGGPFSSTKT-NH2) [compound 37] | yielded solid scaffolds | 
4 | Ac-GGGPFSSTKT-CONH2 (Ac-GGGPFSSTKT-NH2) [peptide 2, biotin-deleted version of B3 that formed no scaffold] | prevented any scaffold formation | 
5 | Ac-WGGGAFASTKT-CONH2 (Ac-WGGGAFASTKT-NH2) [compound 30] | yielded solid scaffolds | cell morphology / degree of spreading [2]: single spherical cells
6 | Ac-Y-GGG-PFSSTKT-CONH2 (Ac-YGGGPFSSTKT-NH2) [peptide 60] | yielded solid scaffolds | 
7 | Biot-GGGGGPFSSTKT-CONH2 (Biotin-GGGGGPFSSTKT-NH2; SMILES C[C@@H](O)[C@H](NC(=O)[C@H](CCCCN)NC(=O)[C@@H](NC(=O)[C@H](CO)NC(=O)[C@H](CO)NC(=O)[C@H](Cc1ccccc1)NC(=O)[C@@H]1CCCN1C(=O)CNC(=O)CNC(=O)CNC(=O)CNC(=O)CNC(=O)CCCC[C@@H]1SC[C@@H]2NC(=O)N[C@@H]21)[C@@H](C)O)C(N)=O) [peptide B25] | yielded solid scaffolds | self-healing property [3]: self-healing property has been seen
8 | Biot-GGGKFSSTPT-CONH2 (Biotin-GGGKFSSTPT-NH2; SMILES C[C@@H](O)[C@H](NC(=O)[C@@H]1CCCN1C(=O)[C@@H](NC(=O)[C@H](CO)NC(=O)[C@H](CO)NC(=O)[C@H](Cc1ccccc1)NC(=O)[C@H](CCCCN)NC(=O)CNC(=O)CNC(=O)CNC(=O)CCCC[C@@H]1SC[C@@H]2NC(=O)N[C@@H]21)[C@@H](C)O)C(N)=O) [B64] | yielded solid scaffolds; also recorded: self-assembled giving a hydrogel upon exposure to PBS | 
9 | Biot-GGGPFSETKT-CONH2 (Biotin-GGGPFSETKT-NH2; SMILES C[C@@H](O)[C@H](NC(=O)[C@H](CCCCN)NC(=O)[C@@H](NC(=O)[C@H](CCC(=O)O)NC(=O)[C@H](CO)NC(=O)[C@H](Cc1ccccc1)NC(=O)[C@@H]1CCCN1C(=O)CNC(=O)CNC(=O)CNC(=O)CCCC[C@@H]1SC[C@@H]2NC(=O)N[C@@H]21)[C@@H](C)O)C(N)=O) [peptide B17] | yielded solid scaffolds | self-healing property [3]: self-healing property has been seen; cell morphology / degree of spreading [2]: proliferated cell clusters
10 | Biot-GGGPFSSKTT-CONH2 (Biotin-GGGPFSSKTT-NH2; SMILES C[C@@H](O)[C@H](NC(=O)[C@@H](NC(=O)[C@H](CCCCN)NC(=O)[C@H](CO)NC(=O)[C@H](CO)NC(=O)[C@H](Cc1ccccc1)NC(=O)[C@@H]1CCCN1C(=O)CNC(=O)CNC(=O)CNC(=O)CCCC[C@@H]1SC[C@@H]2NC(=O)N[C@@H]21)[C@@H](C)O)C(N)=O) [B66] | self-assembled giving a hydrogel upon exposure to PBS | 
11 | Biot-GGGPFSSTKT-CONH2 (Biotin-GGGPFSSTKT-NH2; SMILES C[C@@H](O)[C@H](NC(=O)[C@H](CCCCN)NC(=O)[C@@H](NC(=O)[C@H](CO)NC(=O)[C@H](CO)NC(=O)[C@H](Cc1ccccc1)NC(=O)[C@@H]1CCCN1C(=O)CNC(=O)CNC(=O)CNC(=O)CCCC[C@@H]1SC[C@@H]2NC(=O)N[C@@H]21)[C@@H](C)O)C(N)=O) [peptide B3] | shifting to solid scaffold when exposed to neutral pH buffer; also recorded: yielded solid scaffolds | self-healing property [3]: self-healing property has been seen; cell morphology / degree of spreading [2]: branched cells; storage modulus G′ of assembled scaffold (G′ post-assembling) ([4]; after PBS (1×) addition, averaged in 1-100 Hz range, 25° C., B3 at 1%): 2917 Pa; time for G′ of peptide solution to reach a plateau ([4]; dissolved at 3% concentration in water): 2 days; storage modulus G′ of peptide solution (pre-assembling) ([4]; water solution at day 1, 1%, before PBS): 67 Pa
12 | Biot-GGGPFSSTTK-CONH2 (Biotin-GGGPFSSTTK-NH2; SMILES C[C@@H](O)[C@H](NC(=O)[C@H](CO)NC(=O)[C@H](CO)NC(=O)[C@H](Cc1ccccc1)NC(=O)[C@@H]1CCCN1C(=O)CNC(=O)CNC(=O)CNC(=O)CCCC[C@@H]1SC[C@@H]2NC(=O)N[C@@H]21)C(=O)N[C@H](C(=O)N[C@@H](CCCCN)C(N)=O)[C@@H](C)O) [B67] | self-assembled giving a hydrogel upon exposure to PBS | 
13 | Biot-GGGPKSSTFT-CONH2 (Biotin-GGGPKSSTFT-NH2; SMILES C[C@@H](O)[C@H](NC(=O)[C@H](Cc1ccccc1)NC(=O)[C@@H](NC(=O)[C@H](CO)NC(=O)[C@H](CO)NC(=O)[C@H](CCCCN)NC(=O)[C@@H]1CCCN1C(=O)CNC(=O)CNC(=O)CNC(=O)CCCC[C@@H]1SC[C@@H]2NC(=O)N[C@@H]21)[C@@H](C)O)C(N)=O) [B65] | yielded solid scaffolds; also recorded: self-assembled giving a hydrogel upon exposure to PBS | 
14 | Biot-GGGPWSSTKT-CONH2 (Biotin-GGGPWSSTKT-NH2; SMILES C[C@@H](O)[C@H](NC(=O)[C@H](CCCCN)NC(=O)[C@@H](NC(=O)[C@H](CO)NC(=O)[C@H](CO)NC(=O)[C@H](Cc1c[nH]c2ccccc12)NC(=O)[C@@H]1CCCN1C(=O)CNC(=O)CNC(=O)CNC(=O)CCCC[C@@H]1SC[C@@H]2NC(=O)N[C@@H]21)[C@@H](C)O)C(N)=O) [B27] | yielded solid scaffolds | self-healing property [3]: self-healing property has been seen
15 | Biot-PFSSTKT-CONH2 (Biotin-PFSSTKT-NH2; SMILES C[C@@H](O)[C@H](NC(=O)[C@H](CCCCN)NC(=O)[C@@H](NC(=O)[C@H](CO)NC(=O)[C@H](CO)NC(=O)[C@H](Cc1ccccc1)NC(=O)[C@@H]1CCCN1C(=O)CCCC[C@@H]1SC[C@@H]2NC(=O)N[C@@H]21)[C@@H](C)O)C(N)=O) [peptide B7, non-assembling control peptide] | not give a solid scaffold | 
16 | Biotin-G-AFASTKT-CONH2 [B50] | yielded solid scaffolds | 
17 | Biotin-GGGAFASTKA-NH2 [B33] | yielded solid scaffolds | 
18 | Biotin-GGGAWASTKT-NH2 [B32] | yielded solid scaffolds | 
19 | Biotin-GGGGG-AFASTKT-CONH2 [B51] | yielded solid scaffolds | 
20 | Biotin-GGGPFSSTKTP-NH2 [B34] | yielded solid scaffolds | 

From patent publication US8722850B2, “Self-assembling peptides and their use in the formation of hydrogels” (Universita' Degli Studi di Milano Bicocca, priority 2010, dated 2014)
